Consider 4 molecules from US20250282892A1 (BIOMUNEX PHARMACEUTICALS, published 2025).

The target of assay [1] is T1, HER3 protein expressed on the cell surface of SW-1990 cells (UniProt P21860 20-1342, limits assumed).
T1 construct: whole, on cells; SW-1990 cells carry HER3 and EGFR together; the flow cytometry signal is not split between them
Description: flow cytometry on SW-1990 cells (FIG. 10).

Assay [2] deals with T2, EGFR protein expressed on the cell surface of SW-1990 cells (UniProt P00533 25-1210, limits assumed).
T2 construct: whole, on cells; SW-1990 cells carry HER3 and EGFR together; the flow cytometry signal is not split between them
Description: flow cytometry on SW-1990 cells (FIG. 10).

For the next assay, the target named is T3, EGFR His tag (UniProt P00533 25-645).
T3 construct: Recombinant His-tagged antigen; not shown: His tag
Kind of assay: direct ELISA, His-tagged antigen coated, anti-human Fc-HRP detection.

A further assay concerns the target T4, HER3 His tag (UniProt P21860 20-643).
T4 construct: Recombinant His-tagged antigen; not shown: His tag
Described as above.

Description for EGFR His tag: (§1) 800 ng/ml of EGFR His tag, HER2 His tag or HER3 His tag antigens were diluted in 50 μl of 1×PBS in Nunc Maxisorp 96 plates. The plates were incubated overnight at 4° C., then washed 4 times with 0.1% PBS-Tween (PBS-T) and saturated with PBS-T containing 1% BSA for 1 h at 37° C. After 4 washes in 0.1% PBS-T, the antibodies (BsAbs, MAbs, and controls), were diluted in a final volume of 50 μl in 1×PBS and incubated for 1 h at 37° C. After 4 washes in 0.1% PBS-T, the detection antibody (HRP-coupled anti-human Fc) was added at 1/40000 in a 50 μl volume of 1×PBS and incubated for 1 h at 37° C. The plate was washed 4 times in 0.1% PBS-T and 50 μl of TMB was added to each well for 10-30 min at room temperature and protected from light. The reaction was stopped with 50 μl of 1M hydrochloric acid before reading the optical density at a wavelength of 450 nm.
Description for HER3 His tag: as §1

B1: BMX003-010 (humanized Patri-Cetu-Fc) (bispecific antibody, human IgG1, kappa)
heavy: not shown
light 1: not shown
light 2: EIVLTQSPDFQSVTPKEKVTITCRASQSIGTNIHWYQQKPDQSPKLLIKYASESISGVPSRFSGSGSGTDFTLTINSLEAEDAATYYCQQNNNWPTTFGAGTKLEIKRTVAAPSVFIFPPSDEQLKSGTASVTCLLNNFYPREAKVQWKVDNALQSGNSQESVTEQDSKDSTYSLVSTLTLSKADYEKHKVYACEVTHQGLSSPVTKSFNRGEC
B1: the binding result in assay [1] and in assay [2] was “binds” throughout.

B2: BMX003-011 (humanized Patri-Cetu-Fc modified) (bispecific antibody, human IgG1, kappa)
heavy: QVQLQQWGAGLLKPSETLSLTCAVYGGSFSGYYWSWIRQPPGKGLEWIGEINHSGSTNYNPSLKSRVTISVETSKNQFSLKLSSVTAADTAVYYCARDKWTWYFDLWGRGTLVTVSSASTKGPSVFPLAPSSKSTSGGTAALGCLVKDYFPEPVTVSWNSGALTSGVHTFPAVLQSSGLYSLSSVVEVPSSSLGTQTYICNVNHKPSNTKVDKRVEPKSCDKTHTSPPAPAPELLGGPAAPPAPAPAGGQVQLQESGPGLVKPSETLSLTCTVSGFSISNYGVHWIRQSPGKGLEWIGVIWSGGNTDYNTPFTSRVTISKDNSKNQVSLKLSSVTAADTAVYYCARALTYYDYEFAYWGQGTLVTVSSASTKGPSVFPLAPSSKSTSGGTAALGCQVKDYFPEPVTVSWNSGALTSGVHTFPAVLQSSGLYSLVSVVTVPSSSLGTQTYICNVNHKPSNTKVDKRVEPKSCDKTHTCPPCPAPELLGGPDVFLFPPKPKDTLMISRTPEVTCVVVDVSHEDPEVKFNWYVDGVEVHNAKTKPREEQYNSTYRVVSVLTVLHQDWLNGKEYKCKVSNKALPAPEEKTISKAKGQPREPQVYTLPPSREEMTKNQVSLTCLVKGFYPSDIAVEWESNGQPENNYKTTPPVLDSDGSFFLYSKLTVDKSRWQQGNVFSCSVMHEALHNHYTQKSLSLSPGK
light 1: not shown
light 2: EIVLTQSPDFQSVTPKEKVTITCRASQSIGTNIHWYQQKPDQSPKLLIKYASESISGVPSRFSGSGSGTDFTLTINSLEAEDAATYYCQQNNNWPTTFGAGTKLEIKRTVAAPSVFIFPPSDEQLKSGTASVTCLLNNFYPREAKVQWKVDNALQSGNSQESVTEQDSKDSTYSLVSTLTLSKADYEKHKVYACEVTHQGLSSPVTKSFNRGEC
notes: Identical to BMX003-010 except for 2 mutations in the Fc domain (S239D and I332E, printed '1332E')
As to B2, the binding result in assay [1] and in assay [2] was “binds” in each case.

B3: Patri-Matu-Fc (bispecific antibody, human IgG1, kappa)
heavy: not shown
light 1: not shown
light 2: DIQMTQSPSSLSASVGDRVTITCSASSSVTYMYWYQQKPGKAPKLLIYDTSNLASGVPSRFSGSGSGTDYTFTISSLQPEDIATYYCQQWSSHIFTFGQGTKVEIKRTVAAPSVFIFPPSDEQLKSGTASVTCLLNNFYPREAKVQWKVDNALQSGNSQESVTEQDSKDSTYSLVSTLTLSKADYEKHKVYACEVTHQGLSSPVTKSFNRGEC
notes: Tetravalent tandem Fab-Fc: external Fabs patritumab (anti-HER3), internal Fabs matuzumab (anti-EGFR); 2 heavy chains and 4 light chains; also called 3Patri-1Matu-Fc
Consider B3, for which the EC50 turned out to be 0.39 nM with EGFR His tag and 0.16 nM with HER3 His tag.

B4: Matuzumab (antibody, V domains shown)
VH: QVQLVQSGAEVKKPGASVKVSCKASGYTFTSHWMHWVRQAPGQGLEWIGEFNPSNGRTNYNEKFKSKATMTVDTSTNTAYMELSSLRSEDTAVYYCASRDYDYAGRYFDYWGQGTLVTVSS
VL: DIQMTQSPSSLSASVGDRVTITCSASSSVTYMYWYQQKPGKAPKLLIYDTSNLASGVPSRFSGSGSGTDYTFTISSLQPEDIATYYCQQWSSHIFTFGQGTKVEIK
notes: Parental monoclonal antibody used as positive control; also called EMD72000; parental antibody (anti-EGFR)
As to B4, a half-maximal effect in the assay with EGFR His tag (EC50) was put at 0.09 nM.
